# How the values were obtained:
# [1] = biological target: Drosophila EGFR extracellular region lacking domain V (s-dEGFRΔV) (Drosophila melanogaster) (UniProt P04412)
# [2] = biological target: dimerization-defective s-dEGFR variant (s-dEGFR^dim-arm), biotinylated (Drosophila melanogaster) (UniProt P04412); test: fluorescent ligand binding assay on plates
# [3] = biological target: Drosophila EGFR extracellular region (s-dEGFR) with C-terminal His tag and AviTag, biotinylated (Drosophila melanogaster) (UniProt P04412); test: fluorescent ligand binding assay on plates
# [4] = biological target: EGFR (high-affinity site) (Homo sapiens) (UniProt P00533); conditions: cited from earlier work
# [5] = biological target: EGFR (low-affinity site) (Homo sapiens) (UniProt P00533); conditions: cited from earlier work
substance,measurement,setting,value
"EGF-like domain of Spitz (SpitzEGF, residues 48-105) (ligand)",Kd,[1],368 nM
SpitzEGF labeled with Alexa Fluor-488 (ligand),Kd,[2],920 nM
same,KD of the high-affinity site (fit with two independent classes of site),[3],4.7 nM
same,Kd,[3],49.5 nM
"Spitz_(EGFΔC), variant of SpitzEGF with a C-terminal truncation of six amino acids (ligand)",Kd,[1],4370 nM
EGF (from UniProt P01133),Kd,[4],0.3 nM
same,Kd,[5],2 nM

# Reference: publication PMC2925043
